The target in experiment [1] is T1, myc-GIPR-Rluc (UniProt P48546).
T1 sequence: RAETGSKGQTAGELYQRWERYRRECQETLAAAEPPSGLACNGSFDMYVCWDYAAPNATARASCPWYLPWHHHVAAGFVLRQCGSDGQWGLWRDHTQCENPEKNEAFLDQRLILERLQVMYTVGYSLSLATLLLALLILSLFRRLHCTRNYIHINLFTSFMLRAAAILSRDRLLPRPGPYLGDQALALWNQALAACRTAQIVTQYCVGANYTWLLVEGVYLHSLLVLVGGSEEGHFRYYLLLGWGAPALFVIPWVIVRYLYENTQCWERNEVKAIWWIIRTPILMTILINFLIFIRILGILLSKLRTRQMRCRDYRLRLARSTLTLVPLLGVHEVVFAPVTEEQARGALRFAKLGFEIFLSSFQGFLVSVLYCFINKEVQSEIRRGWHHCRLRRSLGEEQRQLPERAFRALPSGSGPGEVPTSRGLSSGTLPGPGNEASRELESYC

Experiment [2] concerns the target T1, myc-GIPR-Rluc. This is another data set of the same source.

Where two headings read alike, the source gives them in different places.

Regarding “GIP (D-Ala2) (from UniProt P09681 52-93) (peptide)”, in the experiment with myc-GIPR-Rluc [1], the ERK1/2 phosphorylation, biphasic model, high potency component; pEC50 1 was 8.72 -logEC50 and the ERK1/2 phosphorylation, biphasic model, low potency component; pEC50 2 is 6.88 -logEC50.

For GIP (Pro3) (peptide), in the experiment with myc-GIPR-Rluc [1], the ERK1/2 phosphorylation, biphasic model, high potency component; pEC50 1 was 7.49 -logEC50 and the ERK1/2 phosphorylation, biphasic model, low potency component; pEC50 2 was 4.5 -logEC50.

As for “GIP (1-42) (from UniProt P09681 52-93) (peptide)”, in the experiment with myc-GIPR-Rluc [2], the ERK1/2 phosphorylation, biphasic model, high potency component; pEC50 1 is 9.13 -logEC50; the ERK1/2 phosphorylation, biphasic model, low potency component; pEC50 2 was 6.22 -logEC50; the [Ca^2+]i mobilisation, HEK-293S cells with untagged GIPR; pEC50 was 8.7 -logEC50; the cAMP accumulation, 8 min stimulation, HEK-293S cells with untagged GIPR; pEC50 is 9.83 -logEC50.

Values taken from publication doi:10.1101/2021.04.08.436756.
